Measurements taken from patent US20240239915A1 (Zymeworks, published 2024).
Where two headings read alike, the source gives them in different places.

T1: Recombinant Cynomolgus Monkey Fc gamma RI/CD64 Protein, CF (R&D Systems), His-tagged (cynomolgus, UniProt P12314 11-288 (human entry))
T1 construct: also called cynomolgus FcγRI; cFcγRI
T1 chain: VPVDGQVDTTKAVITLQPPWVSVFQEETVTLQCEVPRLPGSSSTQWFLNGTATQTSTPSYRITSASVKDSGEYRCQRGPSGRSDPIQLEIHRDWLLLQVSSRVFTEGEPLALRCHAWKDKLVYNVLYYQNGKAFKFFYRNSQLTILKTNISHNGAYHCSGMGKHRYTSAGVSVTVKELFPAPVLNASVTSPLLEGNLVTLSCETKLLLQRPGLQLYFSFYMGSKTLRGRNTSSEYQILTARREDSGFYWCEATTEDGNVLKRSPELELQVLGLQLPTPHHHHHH

T2: Recombinant Human Fc gamma RIIB/C (CD32b/c) Protein (R&D Systems), His-tagged (human, UniProt P31994 46-217)
T2 construct: also called human FcγRIIb/c; hFcγRIIb/c
T2 sequence: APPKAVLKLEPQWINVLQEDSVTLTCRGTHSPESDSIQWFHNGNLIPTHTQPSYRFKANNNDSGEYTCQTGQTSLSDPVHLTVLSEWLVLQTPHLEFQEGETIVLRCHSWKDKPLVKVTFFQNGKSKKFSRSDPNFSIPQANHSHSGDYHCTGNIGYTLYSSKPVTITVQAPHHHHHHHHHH

T3: Recombinant Human Fc gamma RIIA/CD32a (H167) Protein (R&D Systems), His-tagged (human, UniProt P12318 34-218)
T3 construct: also called human FcγRIIa (H167); hFcγRIIa (H167)
T3 sequence: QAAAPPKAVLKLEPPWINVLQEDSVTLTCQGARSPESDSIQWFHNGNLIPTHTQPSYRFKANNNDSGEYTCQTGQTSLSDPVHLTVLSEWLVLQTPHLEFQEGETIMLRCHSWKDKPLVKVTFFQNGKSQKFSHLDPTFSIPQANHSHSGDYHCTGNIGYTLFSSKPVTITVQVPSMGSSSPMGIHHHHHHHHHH

T4: Recombinant Human Fc gamma RIIA/CD32a (R167) Protein (R&D Systems), His-tagged (human, UniProt P12318 36-218)
T4 construct: also called human FcγRIIa; hFcγRIIa
T4 chain: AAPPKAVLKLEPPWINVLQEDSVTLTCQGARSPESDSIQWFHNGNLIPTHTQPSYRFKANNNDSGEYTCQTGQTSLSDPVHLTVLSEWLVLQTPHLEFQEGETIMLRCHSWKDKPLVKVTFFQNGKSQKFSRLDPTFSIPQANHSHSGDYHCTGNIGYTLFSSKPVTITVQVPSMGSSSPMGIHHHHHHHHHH

T5: Recombinant Cynomolgus Fc gamma RIIA/CD32a Protein (R&D Systems), His-tagged (cynomolgus)
T5 construct: also called cynomolgus FcγRIIa; cFcγRIIa
T5 chain: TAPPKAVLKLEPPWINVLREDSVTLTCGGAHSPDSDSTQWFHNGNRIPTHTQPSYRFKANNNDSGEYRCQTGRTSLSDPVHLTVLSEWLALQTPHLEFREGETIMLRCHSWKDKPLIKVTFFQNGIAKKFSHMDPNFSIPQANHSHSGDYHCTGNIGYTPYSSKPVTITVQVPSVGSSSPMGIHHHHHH

T6: Recombinant Cynomolgus Fc gamma RIIB protein (R&D Systems), His-tagged (cynomolgus)
T6 construct: also called cynomolgus FcγRIIb; cFcγRIIb
T6 chain: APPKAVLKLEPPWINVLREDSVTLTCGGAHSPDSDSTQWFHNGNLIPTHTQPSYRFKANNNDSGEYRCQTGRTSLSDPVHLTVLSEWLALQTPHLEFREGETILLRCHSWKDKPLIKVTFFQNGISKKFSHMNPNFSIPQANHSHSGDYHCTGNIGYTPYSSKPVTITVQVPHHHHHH

T7: Recombinant Cynomolgus Fc gamma RIII/CD16 Protein (R&D Systems), His-tagged (cynomolgus, UniProt Q8SPW2 17-208)
T7 construct: also called cynomolgus FcγRIII; cFcγRIII
T7 chain: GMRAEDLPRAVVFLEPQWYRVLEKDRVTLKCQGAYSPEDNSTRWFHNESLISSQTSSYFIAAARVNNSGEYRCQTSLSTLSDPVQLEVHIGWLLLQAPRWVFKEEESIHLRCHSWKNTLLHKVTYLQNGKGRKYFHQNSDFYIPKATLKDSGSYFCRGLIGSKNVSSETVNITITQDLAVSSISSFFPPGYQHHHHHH

T8: Recombinant Human Fc gamma RIIIB/CD16b Protein (R&D Systems), His-tagged (human, UniProt O75015 20-208)
T8 construct: also called human FcγRIIIb; hFcγRIIIb
T8 chain: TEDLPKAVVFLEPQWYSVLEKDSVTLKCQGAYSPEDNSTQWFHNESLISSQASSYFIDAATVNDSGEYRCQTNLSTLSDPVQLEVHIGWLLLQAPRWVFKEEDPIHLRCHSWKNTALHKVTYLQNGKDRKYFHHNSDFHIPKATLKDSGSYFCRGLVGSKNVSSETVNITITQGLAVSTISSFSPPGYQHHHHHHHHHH


How the values were obtained:
[1] = molecular target: T9, human FcRn (human neonatal Fc receptor large subunit p51 and beta2-microglobulin), biotinylated (human, UniProt P55899 24-297; P61769 21-119, biotinylated (site not stated)); test: BLI (Octet RED384), biotinylated FcRn on streptavidin biosensor, binding at pH 6.0, dissociation at pH 7.4
[2] = molecular target: T1, Recombinant Cynomolgus Monkey Fc gamma …; test: SPR (Biacore T200); His-tagged receptor captured on anti-His antibody chip, antibody as analyte at 4.7 µM
[3] = molecular target: T2, Recombinant Human Fc gamma RIIB/C …; test: SPR (Biacore T200); receptor immobilized directly on CM5 chip, antibody as analyte at 4.7 µM
[4] = molecular target: T3, Recombinant Human Fc gamma RIIA/CD32a …; test: as above
[5] = molecular target: T4, Recombinant Human Fc gamma RIIA/CD32a …; test: as above
[6] = molecular target: T10, Recombinant Human Fc gamma RIIIA/CD16a protein (R&D Systems), His-tagged (human, UniProt P08637 17-208); test: as above
T10 construct: also called human FcγRIIIa; hFcγRIIIa

[7] = molecular target: T9, human FcRn (human neonatal Fc receptor …); test: BLI (Octet RED384), biotinylated FcRn on streptavidin biosensor, binding and dissociation at pH 6.0
[8] = molecular target: T5, Recombinant Cynomolgus Fc gamma …; test: SPR (Biacore T200); receptor immobilized directly on CM5 chip, antibody as analyte at 4.7 µM
[9] = molecular target: T6, Recombinant Cynomolgus Fc gamma RIIB …; test: as above
[10] = molecular target: T7, Recombinant Cynomolgus Fc gamma …; test: as above
[11] = molecular target: T11, Recombinant Human Fc gamma RIIIA/CD16a (V176F) Protein (R&D Systems), His-tagged (human, UniProt P08637 17-208); test: as above
T11 construct: no further substitution applied; also called human FcγRIIIa (V176F); hFcγRIIIa (V176F)

[12] = molecular target: T8, Recombinant Human Fc gamma RIIIB/CD16b …; test: as above
[13] = molecular target: T9, human FcRn (human neonatal Fc receptor …); test: BLI (Octet RED384), biotinylated FcRn on streptavidin biosensor, binding at pH 6.0, dissociation at pH 7.4; dissociation at pH 7.4 after binding at pH 6.0
[14] = molecular target: T8, Recombinant Human Fc gamma RIIIB/CD16b …; test: SPR (Biacore T200): human FcγRIIIb immobilised directly on a CM5 chip, antibody as analyte; RU plotted against antibody concentration
[15] = molecular target: T2, Recombinant Human Fc gamma RIIB/C …; test: SPR (Biacore T200); receptor immobilized directly on CM5 chip, antibody as analyte at 4.7 µM; remark: listed apart in the source
[16] = molecular target: T11, Recombinant Human Fc gamma RIIIA/CD16a …; test: as above; remark: listed apart in the source
[17] = molecular target: T3, Recombinant Human Fc gamma RIIA/CD32a …; test: as above; remark: listed apart in the source
[18] = molecular target: T10, Recombinant Human Fc gamma RIIIA/CD16a …; test: as above; remark: listed apart in the source
[19] = molecular target: T8, Recombinant Human Fc gamma RIIIB/CD16b …; test: as above
[20] = molecular target: T5, Recombinant Cynomolgus Fc gamma …; test: as above
[21] = molecular target: T6, Recombinant Cynomolgus Fc gamma RIIB …; test: as above
[22] = molecular target: T7, Recombinant Cynomolgus Fc gamma …; test: as above
[23] = molecular target: T10, Recombinant Human Fc gamma RIIIA/CD16a …; test: SPR (Biacore T200): human FcγRIIIa immobilised directly on a CM5 chip, antibody as analyte; RU plotted against antibody concentration

T10 sequence (P08637 other isoform, or with tags, fused parts or gaps): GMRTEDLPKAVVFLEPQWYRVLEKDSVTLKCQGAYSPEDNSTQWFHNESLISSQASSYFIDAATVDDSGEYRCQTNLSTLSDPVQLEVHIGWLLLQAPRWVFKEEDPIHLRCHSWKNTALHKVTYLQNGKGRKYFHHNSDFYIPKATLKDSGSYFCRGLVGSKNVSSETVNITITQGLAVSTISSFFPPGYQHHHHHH
T11 sequence (P08637 other isoform, or with tags, fused parts or gaps V176F V176F): as the sequence (P08637 other isoform, or with tags, fused parts or gaps) above, with V160F counted along it

Row | binding response (RU) [2] [RU] | binding response (RU) [3] [RU] | binding response (RU) [4] [RU] | binding response (RU) [5] [RU] | binding response (RU) [6] [RU] | Kd [7] [nM] | binding response (RU) [8] [RU] | binding response (RU) [9] [RU] | binding response (RU) [10] [RU] | binding response (RU) [11] [RU] | binding response (RU) [12] [RU] | Binder | other results
1 | 3200 | 78 | 160 | 330 | 420 | 5.5 | 94 | 270 | 540 |  |  | L234A/L235A (LALA) variant of IgG1 WT of the anti-EGFR antibody panitumumab (antibody, Mutations in both CH2 domains) heavy: not shown light: not shown | koff [1]: 2.8 s⁻¹
2 | 6700 | 650 | 1400 | 1700 | 2400 | 5.8 | 910 | 840 | 2800 | 530 | 250 | IgG1 WT of the anti-EGFR antibody panitumumab (IgG2 Fc region replaced with a human wildtype IgG1 Fc region) (antibody, The legends were followed; also called anti-EGFR antibody IgG1 WT) heavy: not shown light: not shown | koff [13]: 2.1 s⁻¹
3 |  | 20 | 24 |  | 0.4 |  | 25 | 110 | 8.4 | -2.2 | 0.3 | L234A/L235A/D265A (LALA-DA) variant of IgG1 WT of the anti-EGFR antibody panitumumab (antibody, Mutations in both CH2 domains; positions are EU numbers) heavy: QVQLQESGPGLVKPSETLSLTCTVSGGSVSSGDYYWTWIRQSPGKGLEWIGHIYYSGNTNYNPSLKSRLTISIDTSKTQFSLKLSSVTAADTAIYYCVRDRVTGAFDIWGQGTMVTVSSASTKGPSVFPLAPSSKSTSGGTAALGCLVKDYFPEPVTVSWNSGALTSGVHTFPAVLQSSGLYSLSSVVTVPSSSLGTQTYICNVNHKPSNTKVDKRVEPKSCDKTHTCPPCPAPEAAGGPSVFLFPPKPKDTLMISRTPEVTCVVVAVSHEDPEVKFNWYVDGVEVHNAKTKPREEQYNSTYRVVSVLTVLHQDWLNGKEYKCKVSNKALPAPIEKTISKAKGQPREPQVYTLPPSREEMTKNQVSLTCLVKGFYPSDIAVEWESNGQPENNYKTTPPVLDSDGSFFLYSKLTVDKSRWQQGNVFSCSVMHEALHNHYTQKSLSLSPGK light: not shown | binding result [14]: no binding (tested: 4.7 µM); binding response (RU) [15]: 20 RU; binding response (RU) [16]: -2.2 RU; binding response (RU) [17]: 24 RU; binding response (RU) [18]: 0.4 RU; binding response (RU) [19]: 0.3 RU; binding response (RU) [20]: 25 RU; binding response (RU) [21]: 110 RU; binding response (RU) [22]: 8.4 RU; binding result [23]: no binding (tested: 4.7 µM)
